Like-named read-outs stand apart in the source and are kept apart here.
How the values were obtained:
[1] = target: T1, recombinant human PD-L1-His protein (Origincell Therapeutics Co., Ltd.) (human, UniProt Q9NZQ7 19-238, limits assumed); assay: BLI (Octet RED384), antibody on AHC sensor, PD-L1-His in solution
T1 construct: not shown: His tag

[2] = target: T2, human PD-L1 on cells (CHO cells that stably expressed human PD-L1; MDA-MB-231 cells) (human, UniProt Q9NZQ7 19-290); assay: flow cytometry on CHO cells stably expressing human PD-L1, anti-human IgG-Fc DyLight 650 detection
T2 construct: whole, on cells; Stably expressed on CHO cells; also called CHO cells expressing human PD-L1
Experimental: The mixture was mixed well and incubated at 4° C. for 1 hr. After cell washing, Goat F(ab)₂ Anti-Human IgG-Fc (DyLight 650) (ab98593, Abcam) was added and incubated at 4° C. for 30 min. After cell washing, the fluorescence intensity was detected by a flow cytometer (Intellicyt iQue Screener).

[3] = target: T3, mouse PD-L1 on CHO cells that stably expressed mouse PD-L1 (mouse, UniProt Q9EP73 19-290); assay: flow cytometry on CHO cells stably expressing mouse PD-L1, anti-human IgG-Fc DyLight 650 detection
T3 construct: whole, on cells; also called CHO cells expressing mouse PD-L1
Experimental: The mixture was mixed well and incubated at 4° C. for 1 hr. After cell washing, Goat F(ab′)₂ Anti-Human IgG-Fc (DyLight 650) (ab98593) was added and incubated at 4° C. for 30 min. After cell washing, the fluorescence intensity was detected by a flow cytometer (Intellicyt iQue Screener).

[4] = target: T2, human PD-L1 on cells (CHO cells that …); assay: flow cytometry competition: biotin-labelled human PD-1-Fc at a subsaturated concentration on CHO cells stably expressing human PD-L1, antibody titrated, streptavidin R-PE detection
Experimental: (§1) After cell washing, Streptavidin R-PE Conjugate (life technology, SA10041) was added and incubated (4° C., 30 min). After cell washing, the fluorescence intensity was detected by a flow cytometer (Intellicyt iQue Screener).

[5] = target: T3, mouse PD-L1 on CHO cells that stably …; assay: flow cytometry competition: biotin-labelled mouse PD-1-Fc at a subsaturated concentration on CHO cells stably expressing mouse PD-L1, antibody titrated, streptavidin R-PE detection
Experimental: as §1

[6] = target: T1, recombinant human PD-L1-His protein …; assay: BLI (Octet RED384), antibody on AHC sensor, PD-L1-His in solution; remark: listed apart in the source
Experimental: (§2) The antigen-antibody binding kinetics were analyzed by the biofilm interference (BLI) technology, using a molecular interaction analyzer (Octet RED384, purchased from Pall ForteBio Analytics Co., Ltd.) and using a PBS buffer containing 0.1% BSA and 0.02% Tween 20. […] The AHC sensor was regenerated by glycine pulses and then reused. The obtained results would be analyzed by Octet Data Analysis 9.0 software (Pall ForteBio Analytics Co., Ltd.) to give the KD, Kₒₙ (1/Ms) and Koff (1/s).

[7] = target: T4, recombinant human CD137-His protein (Origincell Therapeutics Co., Ltd.) (human, UniProt Q07011 24-186, limits assumed); assay: BLI (Octet RED384), antibody on AHC sensor, CD137-His in solution
T4 construct: also called Human 4-1BB-His; not shown: His tag
Experimental: as §2

[8] = target: T2, human PD-L1 on cells (CHO cells that …); assay: flow cytometry on MDA-MB-231 cells (human PD-L1), anti-human IgG-Fc DyLight 650 detection
Experimental: Human breast cell strain MDA-MB-231 (Shanghai Chinese Academy of Sciences Cell Library) highly expresses the human PD-L1 molecule. […] After cell washing, Goat F(ab′)₂ Anti-Human IgG-Fc (DyLight 650) (ab98593, abcam) was added and incubated at 4° C. for 30 min. After cell washing, the fluorescence intensity was detected by a flow cytometer (Intellicyt iQue Screener).

[9] = target: T2, human PD-L1 on cells (CHO cells that …); assay: flow cytometry competition: biotin-labelled human PD-1-Fc at a subsaturated concentration on CHO cells stably expressing human PD-L1, antibody titrated, streptavidin R-PE detection; remark: listed apart in the source
Experimental: as §1

[10] = target: T3, mouse PD-L1 on CHO cells that stably …; assay: flow cytometry competition: biotin-labelled mouse PD-1-Fc at a subsaturated concentration on CHO cells stably expressing mouse PD-L1, antibody titrated, streptavidin R-PE detection; remark: listed apart in the source
Experimental: as §1

[11] = target: T5, recombinant human PD-L1-Fc protein (Origincell Therapeutics Co., Ltd.) (human, UniProt Q9NZQ7 19-238, limits assumed); assay: BLI (Octet RED384), biotinylated antigen on SA sensor, antibody in solution
T5 construct: Labeled with biotin (EZ-Link Sulfo-NHS-LC-Biotin) for the BLI assays; unlabeled in the phage ELISA; also called Human PD-L1-Fc-Biotin; not shown: Fc part
Experimental: as §2, with “The recombinant human PD-L1-Fc protein and the recombinant mouse PD-L1-Fc were labeled with biotin (EZ-Link Sulfo-NHS-LC-Biotin, Pierce, 21327). The” for “The”, “The” for “The AHC sensor was regenerated by glycine pulses and then reused. The”

[12] = target: T6, recombinant mouse PD-L1-Fc protein (M5251, ACROBiosystems Inc.) (mouse, UniProt Q9EP73 19-238); assay: as above
T6 construct: Bought; Labeled with biotin for the BLI assays; unlabeled in the phage ELISA; also called Mouse PD-L1-Fc-Biotin; not shown: Fc part
Experimental: as §2, with “The recombinant human PD-L1-Fc protein and the recombinant mouse PD-L1-Fc were labeled with biotin (EZ-Link Sulfo-NHS-LC-Biotin, Pierce, 21327). The” for “The”, “The” for “The AHC sensor was regenerated by glycine pulses and then reused. The”

T5 sequence (Q9NZQ7 19-238 limits assumed): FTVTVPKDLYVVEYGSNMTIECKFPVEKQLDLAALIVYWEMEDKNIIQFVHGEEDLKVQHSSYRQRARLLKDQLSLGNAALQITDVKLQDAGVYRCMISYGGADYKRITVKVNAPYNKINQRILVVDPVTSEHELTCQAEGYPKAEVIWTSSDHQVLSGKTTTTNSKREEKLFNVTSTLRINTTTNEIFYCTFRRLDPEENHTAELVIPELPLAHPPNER
T1 sequence (Q9NZQ7 19-238 limits assumed): as above
T2 sequence (Q9NZQ7 19-290): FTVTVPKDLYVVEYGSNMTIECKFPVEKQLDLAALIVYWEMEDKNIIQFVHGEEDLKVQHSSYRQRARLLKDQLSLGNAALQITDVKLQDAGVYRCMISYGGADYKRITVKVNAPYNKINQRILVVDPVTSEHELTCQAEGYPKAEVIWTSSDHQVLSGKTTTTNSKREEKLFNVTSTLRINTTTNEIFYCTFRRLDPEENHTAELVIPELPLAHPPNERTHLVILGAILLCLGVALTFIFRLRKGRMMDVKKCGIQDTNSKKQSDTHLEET
T6 sequence (Q9EP73 19-238 limits assumed): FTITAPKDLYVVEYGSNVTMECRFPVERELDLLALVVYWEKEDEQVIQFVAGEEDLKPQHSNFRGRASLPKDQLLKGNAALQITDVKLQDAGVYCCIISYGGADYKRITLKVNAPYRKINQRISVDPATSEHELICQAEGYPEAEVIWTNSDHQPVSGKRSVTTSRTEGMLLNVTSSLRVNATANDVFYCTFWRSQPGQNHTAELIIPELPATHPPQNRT
T3 sequence (Q9EP73 19-290): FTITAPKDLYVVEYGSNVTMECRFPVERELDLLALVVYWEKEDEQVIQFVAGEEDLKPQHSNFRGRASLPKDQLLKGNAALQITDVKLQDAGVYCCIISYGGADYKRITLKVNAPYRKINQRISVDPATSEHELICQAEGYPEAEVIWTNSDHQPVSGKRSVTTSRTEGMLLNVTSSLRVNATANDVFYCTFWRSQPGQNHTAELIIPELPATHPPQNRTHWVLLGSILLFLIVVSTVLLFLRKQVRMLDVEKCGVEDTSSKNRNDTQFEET

Row | Kd [1] | koff [1] | kon [1] | EC50 (read off the curve) [2] | EC50 (read off the curve) [3] | IC50 (read off the curve) [4] | IC50 (read off the curve) [5] | Kd [6] | koff [6] | kon [6] | Kd [7] | koff [7] | kon [7] | EC50 (read off the curve) [8] | IC50 (read off the curve) [9] | IC50 (read off the curve) [10] | Binder | other results
1 | 0.485 nM | 0.000173 s⁻¹ | 356000 M⁻¹ s⁻¹ | 3 to 4 nM | ~6 nM | ~3 nM | ~4 nM | – | – | – | – | – | – | – | – | – | PD-L1 antibody YN-039 (antibody, human IgG1, lambda, V domains shown, full-length IgG1,lambda) VH: QVQLVQSGAEVKKPGSSVKVSCKASRGPFSTYAISWVRQAPGQGLEWMGRIIPILGIANYAQKFQGRVTITADKSTSTAYMELSSLRSEDTAVYYCARTMGEYSYGNYDYWGQGTLVTVSS VL: QSALTQPASVSGSPGQSITISCTGTVSDVGGYNEVSWYQQHPGKAPKLMIYENSIRPSGVSHRFSGSKSGNTASLTISGLQAEDEADYYCQSYDSSLSGTVFGGGTKLTVLG | –
2 | 0.447 nM | 0.000156 s⁻¹ | 350000 M⁻¹ s⁻¹ | 3 to 4 nM | ~6 nM | ~3 nM | ~4 nM | – | – | – | – | – | – | – | – | – | PD-L1 antibody YN-038 (antibody, human IgG1, lambda, V domains shown, full-length IgG1,lambda) VH: QVQLVQSGAEVKKPGSSVKVSCKASRGPFSTYAISWVRQAPGQGLEWMGRIIPILGIANYAQKFQGRVTITADKSTSTAYMELSSLRSEDTAVYYCARTMGEYSYGNYDYWGQGTLVTVSS VL: QSALTQPASVSGSPGQSITISCTGTRSDVGGYNEVSWYQQHPGKAPKLMIYENSIRPSGVSHRFSGSKSGNTASLTISGLQAEDEADYYCQSYDSSLSGTVFGGGTKLTVLG | –
3 | 0.382 nM | 0.000136 s⁻¹ | 355000 M⁻¹ s⁻¹ | 3 to 4 nM | ~6 nM | ~3 nM | ~4 nM | – | – | – | – | – | – | – | – | – | PD-L1 antibody YN-037 (antibody, human IgG1, lambda, V domains shown, full-length IgG1,lambda) VH: QVQLVQSGAEVKKPGSSVKVSCKASRGPFSTYAISWVRQAPGQGLEWMGRIIPILGIANYAQKFQGRVTITADKSTSTAYMELSSLRSEDTAVYYCARTMGEYSYGNYDYWGQGTLVTVSS VL: QSALTQPASVSGSPGQSITISCTGTSSSVGGYREVSWYQQHPGKAPKLMIYENSIRPSGVSHRFSGSKSGNTASLTISGLQAEDEADYYCQSYDSSLSGTVFGGGTKLTVLG | –
4 | – | – | – | – | – | – | – | 0.517 nM | 0.000275 s⁻¹ | 532000 M⁻¹ s⁻¹ | 1.64 nM | 0.000147 s⁻¹ | 89900 M⁻¹ s⁻¹ | ~1 nM | ~2 nM | ~5 nM | anti-PD-L1/CD137 bispecific antibody YN-051 (bispecific antibody, human IgG1, lambda, N297A, First polypeptide (built from the YN-035 heavy chain and the YN-006 heavy and light chain genes) and second polypeptide (= YN-035 light chain); SDS-PAGE: about 200 kDa non-reduced, about 75 and 25 kDa reduced) heavy: not shown light: QSALTQPASVSGSPGQSITISCTGTVSEVGGYNEVSWYQQHPGKAPKLMIYGNSNRPSGVSNRFSGSKSGNTASLTISGLQAEDEADYYCQSYDSSLSGTVFGGGTKLTVLGQPKAAPSVTLFPPSSEELQANKATLVCLISDFYPGAVTVAWKADSSPVKAGVETTTPSKQSNNKYAASSYLSLTPEQWKSHRSYSCQVTHEGSTVEKTVAPTECS | –
5 | – | – | – | – | – | – | – | 0.572 nM | 0.000257 s⁻¹ | 448000 M⁻¹ s⁻¹ | 2.08 nM | 0.000174 s⁻¹ | 83700 M⁻¹ s⁻¹ | ~2 nM | ~3 nM | ~5 nM | anti-PD-L1/CD137 bispecific antibody YN-052 (bispecific antibody, human IgG1, lambda, N297A, First polypeptide (built from the YN-036 heavy chain and the YN-006 heavy and light chain genes) and second polypeptide (= YN-036 light chain); SDS-PAGE: about 200 kDa non-reduced, about 75 and 25 kDa reduced) heavy: not shown light: QSALTQPASVSGSPGQSITISCTGTVSEVGGYNEVSWYQQHPGKAPKLMIYGNSNRPSGVSNRFSGSKSGNTASLTISGLQAEDEADYYCQSYDSSLSGTVFGGGTKLTVLGQPKAAPSVTLFPPSSEELQANKATLVCLISDFYPGAVTVAWKADSSPVKAGVETTTPSKQSNNKYAASSYLSLTPEQWKSHRSYSCQVTHEGSTVEKTVAPTECS | –
6 | – | – | – | – | – | – | – | – | – | – | – | – | – | – | – | – | anti-PD-L1/CD137 bispecific antibody YN-007 (bispecific antibody, First polypeptide (built from the YN-003 heavy chain and the YN-006 heavy and light chain genes) and second polypeptide (= YN-003 light chain); SDS-PAGE: about 200 kDa non-reduced, about 75 and 25 kDa reduced) heavy: not shown light: QSALTQPASVSGSPGQSITISCTGTSSDVGGYNYVSWYQQHPGKAPKLMIYGNSNRPSGVSNRFSGSKSGNTASLTISGLQAEDEADYYCQSYDSSLSGSVFGGGTKLTVLGQPKAAPSVTLFPPSSEELQANKATLVCLISDFYPGAVTVAWKADSSPVKAGVETTTPSKQSNNKYAASSYLSLTPEQWKSHRSYSCQVTHEGSTVEKTVAPTECS | Kd [11]: 0.525 nM; koff [11]: 0.000592 s⁻¹; kon [11]: 1.13e+06 M⁻¹ s⁻¹; Kd [12]: 1.34 nM; koff [12]: 0.00109 s⁻¹; kon [12]: 810000 M⁻¹ s⁻¹
